Measurements reported in publication PMC9680129, “SARS-CoV-2 accessory protein 7b forms homotetramers in detergent” (Virology Journal, 2022).
“And” between values parts separate entries of the source, which are not always exact repeats. Identical values can stand only once.

Assays:
[1] = target: transmembrane domain of p7b (p7b-TM) (SARS-CoV); assay: AUC
[2] = target: transmembrane domain of p7b (p7b-TM) (SARS-CoV); assay: AUC; remark: listed apart in the source
[3] = target: transmembrane domain of p7b (p7b-TM) (SARS-CoV); assay: SDS-PAGE
AUC = target: the molecule itself; assay: AUC
SDS-PAGE = target: the molecule itself; assay: SDS-PAGE

Row | Molecule | stoichiometry N [1] | stoichiometry N [2] | stoichiometry N [3] | stoichiometry N (AUC) | stoichiometry N (SDS-PAGE)
1 | transmembrane domain of p7b (p7b-TM) (domain or fragment) | 2 | 4 | 2 | – | –
2 | MIELSLIDFYLCFLAFLLFLVLIMLIIFWFSLELQDHNETCHA (natural protein, also called SARS-2 p7b; SARS-2 7b) [SARS-CoV-2 accessory protein 7b] | – | – | – | 4 | 2
3 | MNELTLIDFYLCFLAFLLFLVLIMLIIFWFSLEIQDLEEPCTKV (natural protein, also called SARS p7b; SARS 7b) [SARS-CoV accessory protein 7b] | – | – | – | 4 and 2 | –
